Source: IntAct's records for PubMed 21532587

B1: Protein transport protein SEC23 (Saccharomyces cerevisiae), P15303 (parent)
chain: MDFETNEDINGVRFTWNVFPSTRSDANSNVVPVGCLYTPLKEYDELNVAPYNPVVCSGPHCKSILNPYCVIDPRNSSWSCPICNSRNHLPPQYTNLSQENMPLELQSTTIEYITNKPVTVPPIFFFVVDLTSETENLDSLKESIITSLSLLPPNALIGLITYGNVVQLHDLSSETIDRCNVFRGDREYQLEALTEMLTGQKPTGPGGAASHLPNAMNKVTPFSLNRFFLPLEQVEFKLNQLLENLSPDQWSVPAGHRPLRATGSALNIASLLLQGCYKNIPARIILFASGPGTVAPGLIVNSELKDPLRSHHDIDSDHAQHYKKACKFYNQIAQRVAANGHTVDIFAGCYDQIGMSEMKQLTDSTGGVLLLTDAFSTAIFKQSYLRLFAKDEEGYLKMAFNGNMAVKTSKDLKVQGLIGHASAVKKTDANNISESEIGIGATSTWKMASLSPYHSYAIFFEIANTAANSNPMMSAPGSADRPHLAYTQFITTYQHSSGTNRIRVTTVANQLLPFGTPAIAASFDQEAAAVLMARIAVHKAETDDGADVIRWLDRTLIKLCQKYADYNKDDPQSFRLAPNFSLYPQFTYYLRRSQFLSVFNNSPDETAFYRHIFTREDTTNSLIMIQPTLTSFSMEDDPQPVLLDSISVKPNTILLLDTFFFILIYHGEQIAQWRKAGYQDDPQYADFKALLEEPKLEAAELLVDRFPLPRFIDTEAGGSQARFLLSKLNPSDNYQDMARGGSTIVLTDDVSLQNFMTHLQQVAVSGQA
B2: Casein kinase I homolog HRR25 (Saccharomyces cerevisiae), P29295 (parent)
chain: MDLRVGRKFRIGRKIGSGSFGDIYHGTNLISGEEVAIKLESIRSRHPQLDYESRVYRYLSGGVGIPFIRWFGREGEYNAMVIDLLGPSLEDLFNYCHRRFSFKTVIMLALQMFCRIQYIHGRSFIHRDIKPDNFLMGVGRRGSTVHVIDFGLSKKYRDFNTHRHIPYRENKSLTGTARYASVNTHLGIEQSRRDDLESLGYVLIYFCKGSLPWQGLKATTKKQKYDRIMEKKLNVSVETLCSGLPLEFQEYMAYCKNLKFDEKPDYLFLARLFKDLSIKLEYHNDHLFDWTMLRYTKAMVEKQRDLLIEKGDLNANSNAASASNSTDNKSETFNKIKLLAMKKFPTHFHYYKNEDKHNPSPEEIKQQTILNNNAASSLPEELLNALDKGMENLRQQQPQQQVQSSQPQPQPQQLQQQPNGQRPNYYPEPLLQQQQRDSQEQQQQVPMATTRATQYPPQINSNNFNTNQASVPPQMRSNPQQPPQDKPAGQSIWL
partner: B1 chain
B3: Protein transport protein SEC23 (Saccharomyces cerevisiae), P15303 (parent)
chain: B1 chain
partner: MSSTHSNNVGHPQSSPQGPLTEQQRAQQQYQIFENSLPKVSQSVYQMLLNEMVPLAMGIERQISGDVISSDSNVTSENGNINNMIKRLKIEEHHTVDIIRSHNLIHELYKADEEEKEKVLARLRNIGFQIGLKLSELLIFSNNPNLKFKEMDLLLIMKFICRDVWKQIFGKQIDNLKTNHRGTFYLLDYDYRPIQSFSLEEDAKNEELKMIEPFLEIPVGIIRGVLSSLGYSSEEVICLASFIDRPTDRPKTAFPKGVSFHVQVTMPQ
B4: Casein kinase I homolog HRR25 (Saccharomyces cerevisiae), P29295 (parent)
chain: B2 chain
partner: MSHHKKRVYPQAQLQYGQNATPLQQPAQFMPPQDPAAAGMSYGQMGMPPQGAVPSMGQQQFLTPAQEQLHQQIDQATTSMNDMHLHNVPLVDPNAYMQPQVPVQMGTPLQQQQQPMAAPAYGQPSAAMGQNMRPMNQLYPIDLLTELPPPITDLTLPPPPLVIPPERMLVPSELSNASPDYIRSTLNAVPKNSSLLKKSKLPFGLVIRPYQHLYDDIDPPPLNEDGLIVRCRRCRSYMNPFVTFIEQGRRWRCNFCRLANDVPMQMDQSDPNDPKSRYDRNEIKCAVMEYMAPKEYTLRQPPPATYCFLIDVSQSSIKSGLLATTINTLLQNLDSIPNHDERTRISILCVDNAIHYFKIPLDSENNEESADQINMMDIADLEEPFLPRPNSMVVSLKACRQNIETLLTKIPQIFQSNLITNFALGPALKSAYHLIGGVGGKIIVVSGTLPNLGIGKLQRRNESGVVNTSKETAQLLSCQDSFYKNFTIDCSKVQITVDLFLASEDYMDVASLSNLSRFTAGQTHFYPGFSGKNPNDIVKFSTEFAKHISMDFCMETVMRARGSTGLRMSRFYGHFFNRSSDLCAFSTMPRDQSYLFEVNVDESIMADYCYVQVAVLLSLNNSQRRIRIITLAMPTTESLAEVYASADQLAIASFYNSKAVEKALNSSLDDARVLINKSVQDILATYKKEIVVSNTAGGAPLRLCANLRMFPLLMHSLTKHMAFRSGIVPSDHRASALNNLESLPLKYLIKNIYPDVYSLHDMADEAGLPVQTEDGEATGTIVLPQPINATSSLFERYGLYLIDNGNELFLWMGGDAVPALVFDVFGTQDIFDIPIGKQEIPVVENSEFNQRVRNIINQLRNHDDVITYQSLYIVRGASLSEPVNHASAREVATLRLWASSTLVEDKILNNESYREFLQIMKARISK

Variants of: B1
Settings: with sar1_yeast SAR1, P20606
sar1_yeast SAR1, P20606, sequence (P20606 whole entry): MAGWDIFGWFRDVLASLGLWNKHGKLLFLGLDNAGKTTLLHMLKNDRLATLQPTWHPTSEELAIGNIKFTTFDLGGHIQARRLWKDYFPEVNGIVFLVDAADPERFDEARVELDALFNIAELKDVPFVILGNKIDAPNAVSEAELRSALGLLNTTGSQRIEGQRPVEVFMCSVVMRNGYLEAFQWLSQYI

Variant | effect of a mutation on the interaction
T747E | disrupting interaction
S742D | disrupting interaction
S742D;T747E | disrupting interaction

Variants of: B2
Settings: with sec23_yeast SEC23, P15303

Variant | effect of a mutation on the interaction
K38A | disrupting interaction

Variants of: B3
Settings: with trs33_yeast TRS33, Q99394

Variant | effect of a mutation on the interaction
S742D;T747E | decreasing interaction

Variants of: B4
Settings: with sec24_yeast SEC24, P40482

Variant | effect of a mutation on the interaction
K38A | disrupting interaction
